How the values were obtained:
gDHER2(DIV)-IgG = gDHER2(DIV)-IgG (UniProt P04626)

Row | Substance | in vitro HER2 cleavage (sheddase) assay, stained gel (gDHER2(DIV)-IgG) | in vitro cleavage of HER-Fc proteins (other HER receptors)
1 | purified catalytic domain of MT2-MMP (MMP-15) | All MT-MMPs except MMP-14 efficiently cleave gDHER2(DIV)-IgG substrate | 
2 | purified catalytic domain of MT3-MMP (MMP-16) | All MT-MMPs except MMP-14 efficiently cleave gDHER2(DIV)-IgG substrate | 
3 | MMP-15 (MT2-MMP), construct not specified at that place |  | MMP-15 does not clip other HER receptors
4 | purified catalytic domain of MT4-MMP (MMP-19) | All MT-MMPs except MMP-14 efficiently cleave gDHER2(DIV)-IgG substrate | 
